Patent publication US20150118233A1

What was measured:
[1] = biological target: hRSV FTM- NN protein (membrane anchorless form of the Long fusion protein, 70 kDa) (hRSV strain Long); test: Alphascreen competition: FTM- NN (0.3 nM) bridged by biotinylated Synagis Fab and 101F Fab acceptor beads
[2] = biological target: F protein of hRSV strain Long (hRSV strain Long); test: cell-based or functional assay
[3] = biological target: F protein of Long escape mutant R7C2/11 (antigenic site II) (hRSV strain Long escape mutant); test: cell-based or functional assay
[4] = biological target: F protein of hRSV strain A-2 (hRSV strain A-2); test: cell-based or functional assay
Sequence of F protein of hRSV strain A-2 (hRSV strain A-2) (chain, as listed by the source limits assumed): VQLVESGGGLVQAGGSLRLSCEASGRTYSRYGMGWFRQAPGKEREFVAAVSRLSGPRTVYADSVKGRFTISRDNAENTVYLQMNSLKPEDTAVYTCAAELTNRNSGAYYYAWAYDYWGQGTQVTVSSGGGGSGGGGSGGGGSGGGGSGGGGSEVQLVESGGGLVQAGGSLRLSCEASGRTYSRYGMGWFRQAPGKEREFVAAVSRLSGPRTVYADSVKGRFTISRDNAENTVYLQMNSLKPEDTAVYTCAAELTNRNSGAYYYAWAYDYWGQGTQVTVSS

[5] = biological target: F protein of hRSV strain B-1 (hRSV strain B-1); test: cell-based or functional assay
Sequence of F protein of hRSV strain B-1 (hRSV strain B-1) (chain, as listed by the source limits assumed): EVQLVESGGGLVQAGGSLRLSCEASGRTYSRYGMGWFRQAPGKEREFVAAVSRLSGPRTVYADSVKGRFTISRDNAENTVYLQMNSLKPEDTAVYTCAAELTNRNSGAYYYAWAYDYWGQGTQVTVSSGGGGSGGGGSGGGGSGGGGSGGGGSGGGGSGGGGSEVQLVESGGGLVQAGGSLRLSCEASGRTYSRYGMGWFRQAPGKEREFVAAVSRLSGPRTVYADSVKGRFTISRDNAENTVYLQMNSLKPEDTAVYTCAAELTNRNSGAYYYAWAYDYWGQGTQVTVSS

[6] = biological target: F protein of Long escape mutant R7C2/1 (K272E in antigenic site II) (hRSV strain Long escape mutant); test: cell-based or functional assay
Sequence of F protein of Long escape mutant R7C2/1 (K272E in antigenic site II) (hRSV strain Long escape mutant) (chain, as listed by the source): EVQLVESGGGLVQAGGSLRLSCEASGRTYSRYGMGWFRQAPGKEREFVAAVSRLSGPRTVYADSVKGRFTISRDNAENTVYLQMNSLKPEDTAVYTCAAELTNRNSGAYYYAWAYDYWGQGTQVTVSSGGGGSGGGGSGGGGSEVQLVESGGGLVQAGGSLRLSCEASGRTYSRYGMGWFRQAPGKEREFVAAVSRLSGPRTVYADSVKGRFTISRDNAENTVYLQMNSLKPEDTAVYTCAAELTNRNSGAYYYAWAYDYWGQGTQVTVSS

[7] = biological target: hRSV FTM- NN protein (membrane anchorless form of the Long fusion protein, 70 kDa) (hRSV strain Long); test: SPR (Biacore T100), FTM- NN amine-coupled, 1:1 Langmuir fit

## 101F Fab
[1]
  IC50: 1.12 nM

## Numax Fab (Motavizumab or MEDI-524)
[1]
  IC50: 0.086 nM

## Synagis® (Palivizumab, humanized monoclonal antibody)
[2]
  Neutralization IC50 (first assay): 7.3 nM
  Neutralization IC50 (second assay): 6 nM
  RSV neutralization IC50: 4 nM
[3]
  neutralization of escape mutant virus, IC50: > 0.2 µM
[4]
  RSV neutralization IC50: 2.5 nM
[5]
  Neutralization IC50 (first assay): 2.1 nM
  Neutralization IC50 (second assay): 2.9 nM
  RSV neutralization IC50: 1.7 nM
[6]
  neutralization of escape mutant virus, IC50: > 0.2 µM
[7]
  Kd: 0.64 nM
  koff: 0.00018 s⁻¹
  kon: 280000 M⁻¹ s⁻¹
